B1: TPR t1 (parent)
chain: GACCAAUCUGCCCUCAGAGCUCGAGAACAUCUUCGGAUGCAGAGGAGGCAGGCUUCGGUGGCGCGAUAGCGCCAACGUCCUCAACCUCCAAUGCAUCCCACCACAUGAUGAUGCCUGAAGAGCCUUGGUUUUUUG

Variants of: B1
Test: polymerase ribozyme fitness, log enrichment relative to wild type (log ratio); higher = more active; in vitro selection for triplet polymerase activity
Procedure, shortened: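 Fitness compares each genotype's enrichment to that of the wild type on a logarithmic scale, averaging replicates with inverse-variance weights. The logarithm is base 2. Enrichment came from Illumina sequencing of input and output libraries after one triplicate round of in vitro selection, which included frozen incubation at −7 °C, of PCR-built, transcribed mutant libraries of each subunit of a heterodimeric triplet polymerase ribozyme. Only genotypes with ≥10 input reads and ≥1 read per output were kept.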

| Variant | polymerase ribozyme fitness (log ratio) |
| --- | --- |
| A18U G71C C104A | -6.56 |
| A18G G39U C53U G71A G120A | -4.4 |
| A18U A43U A83G C89G G110U U125A | -5.8 |
| A18G C124A | -0.403 |
| G17C C79U | -4.69 |
| A18U U133G | -1.41 |
| G17A C94G | -4.81 |
| G17C C85G C86U A91U U112G | -6.74 |
| G17A G36U U112G | -4.13 |
| A18C C64U U130C | -2.08 |
| A18C A29G G107U C124G U125C | -7.59 |
| G19C G63C A111G C115G | -5.11 |
| G19U G45C A91C A111C | -3.35 |
| G19U A41G G63U | -4.85 |
| G19C U130C | -2 |
| A18U C82A U92A | -4.27 |
| G17A C20G A121G | -4.27 |
| A18G C80U U92C G120U U129C U130A | -6.4 |
| G17A C73U U112A A119U C123U U125C | -2.9 |
| A18U C20G G61A | -6.8 |
| G17C G61A G120C | -1.39 |

| Variant | polymerase ribozyme fitness (log ratio) |
| --- | --- |
| A18C C20U C114A | 0.845 |
| G17U C62G | -3.93 |
| G19A G93U | -4.24 |
| A18U C86A C89U C123U | -3.07 |
| G19U U21A C79G C114A | -0.277 |
| A18U G44U C88G C89A | -2.55 |
| G17A G63A C82U | -5.43 |
| G17A C62A U87C | -6.24 |
| G17A U21A G44C A46C C73G | -5.53 |
| A18C G71U | -3.18 |
| G17U U112C | -0.756 |
| G19A G71C G127C | -4.23 |
| A18C C20U C88G G110C | -4.72 |
| G17A A41C G117U | -3.91 |
| G17U A37U | -2.44 |
| G17U A37C | -2.42 |
| A18C G19U G48A G58C C62G C124A | -5.33 |
| G19U A43U A74U | -3.22 |
| A18U C73U U96A | -3.25 |
| G19U C31U C56G C124U | -6.42 |
| G19C C40U G93U C114G G122A | -0.927 |

| Variant | polymerase ribozyme fitness (log ratio) |
| --- | --- |
| A18G A24G C34U G61A A111U G128U G135U | -6.04 |
| G17A U38A U59G C115U G117U | -3.04 |
| G19U A50U | -3.48 |
| G17U C72U | -3.14 |
| G17A C49G U55C A75U C76U G113U | -7.46 |
| A18U G128C | -4.63 |
| G19C G42U C62U C76G U92G | -4.02 |
| G19U C124U | -1.97 |
| G17A G48U G57C G60A | -2.98 |
| G19U C20U U106C | -2.36 |
| G19A C49G G60U C85U A111C | -2.03 |
| A18U A26G C40G A43U G69A C97A U112A | -7.04 |
| G17C G63A G77U U81A A119G A121C | -5.23 |
| G19C G42U U92A | -2.69 |
| G17C A18C | -4.12 |
| G19A C56U | -2.34 |
| A18U G113C | -3.57 |
| A18U G48U | -2.49 |
| G19U A24U A41C A43U U92G C101G G110U | -6.86 |
| G19U C56A | -3.03 |
| A18C G44U | -3.35 |

| Variant | polymerase ribozyme fitness (log ratio) |
| --- | --- |
| G17C C34G C99U G110U G127U | -5.7 |
| G17A G48C C124A G128A | -3.31 |
| G17U A43C U59G C62G A75G C115U C124G | -5.23 |
| G17C A37U U54G U112C | -3.41 |
| G17A A43U G120A | -3.38 |
| G17A G93U | -4.76 |
| A18C G19U | -5.8 |
| G17A G42U U129A | -4.5 |
| G17A G61A C124U | -2.13 |
| A18C G71U U78G | -4.63 |
| A18C G47A | -2.19 |
| A18C G61A | -2.53 |
| G17U C88A | -2.77 |
| A18C G52A | -2.7 |
| A18G G45U C102U U109C U116G | -5.64 |
| A18G A46G C72U | -4.38 |
| G17C G35A C98U G120A | -5.26 |
| G19U C40U | -3 |
| G17C G69U G122A | -2.46 |
| A18G C64U G113A | -1.65 |
